We go through 4 compounds from patent publication US20140073761A1, “CONJUGATES CONTAINING HYDROPHILIC SPACER LINKERS” (priority 2007, published 2014).

Structures are written as SMILES. Like-named read-outs stand apart in the source and are kept apart here.

Series [1] in a line: Serum binding, 30K NMWL filtration, HPLC-UV. It is filed as in vitro ADME. As to conditions: 50 μM compound in serum, n=3. The protocol:
Serum Binding. Serum binding of Folate-DAVLBH conjugates containing hydrophilic spacer linkers compared to Comparative Example EC 145 lacking a hydrophilic spacer linker 50 μM compound in serum with 30K NMWL filtration and evaluation by HPLC-UV detection (n=3).

On the set-up of series [2]: AUC (DAVLBH biliary excretion): unit not given beside the values. Conditions: rat, in vivo, iv.
The procedure of series [3]: Toxicity as Measured by Weight Loss. The percentage weight change was determined in mice (5 mice/group) on selected days post-tumor inoculation (PTI), compared to controls, and graphed.
Series [4] can be described thus: Multiple dose MTD, i.v. TIW for 1 week. Conditions: mouse, in vivo, iv, Balb/c mice. The method, then: EC0436 and Comparative Example EC0305 were also administered i.v. to Balb/c mice TIW for 1 week. The resulting MTD for the multiple dose was EC0305 ([…]) and EC0436 ([…]).
Series [5] is described as follows: Cytotoxicity of bortezomib versus EC0501 (FIG. 14). The class given is cell-based.
The nature of series [6]: Hepatobiliary excretion (bile clearance) in bile duct cannulated rats. Conditions: 2 μmol/kg i.v. bolus.
From the text: Comparison of Bile Clearance (% ID) of unconjugated drug, drug conjugate lacking a hydrophilic spacer linker, and conjugates described herein.
The mark [7] stands for this setting: FIG. 6B, 7B, 8B, M109 tumors, Balb/c mice, 2 μmol/kg TIW two weeks.

As for `CC[C@]1(O)C[C@H]2CN(CCc3c([nH]c4ccccc34)[C@@](C(=O)OC)(c3cc4c(cc3OC)N(C)[C@H]3[C@@](O)(C(=O)NNC(=O)OCCSSC[C@H](NC(=O)[C@H](CC(=O)O)NC(=O)[C@H](CC(=O)O)NC(=O)[C@H](CCCNC(=N)N)NC(=O)[C@H](CC(=O)O)NC(=O)CC[C@H](NC(=O)c5ccc(NCc6cnc7nc(N)[nH]c(=O)c7n6)cc5)C(=O)O)C(=O)O)[C@H](O)[C@]5(CC)C=CCN6CC[C@]43[C@@H]65)C2)C1` [EC145, reference compound], in series [1] (human, read-out: Human Serum (% Bound) (converted)), the fraction unbound at 50 μM was 0.457. Moreover, the fraction unbound at 50 μM in series [1] (mouse, read-out: Mouse Serum (% Bound) (converted)) was 0.327. Further, in series [2], the “AUC (DAVLBH biliary excretion)” value is given as 1092 and the “percent of total dose in the bile (total DAVLBH biliary excretion)” value was determined as 8.7%. Moreover, the “gross toxicity (percentage body weight change)” value in series [3] (mouse, in vivo) is reported as “no gross toxicity was observed”.

Compound `CCCC(=O)OCN(C(=O)[C@@H](NC[C@H]1CCCCN1C)C(C)CC)[C@H](C[C@@H](OC(C)=O)c1nc(C(=O)N[C@@H](Cc2ccc(O)cc2)C[C@H](C)C(=O)NNC(=O)OCCSSC[C@H](NC(=O)[C@H](CC(=O)O)NC(=O)[C@H](CCCNC(=N)N)NC(=O)[C@H](CC(=O)O)NC(=O)CC[C@H](NC(=O)c2ccc(NCc3cnc4nc(N)[nH]c(=O)c4n3)cc2)C(=O)O)C(=O)O)cs1)C(C)C` (stereo partly shown) [EC0305, reference compound] had an MTD at 1 week in series [4] of 6 µmol/kg. Moreover, the “gross toxicity (percentage body weight change)” value in series [3] (setting [7]) was “no gross toxicity was observed”.

A word on the IC50: it is the concentration needed to halve the response being measured. In turn, `CC(C)C[C@H](NC(=O)[C@H](Cc1ccccc1)NC(=O)c1cnccn1)B(O)O` [bortezomib] displayed an IC50 in series [5] of 20 nM.

With `CC[C@]1(O)CC2CN(CCc3c([nH]c4ccccc34)[C@@](C(=O)OC)(c3cc4c(cc3OC)N(C)C3C45CCN4CC=C[C@](CC)(C45)[C@@H](O)[C@]3(O)C(=O)NNC(=O)OCCSSC[C@H](NC(=O)C[C@H](NC(=O)C[C@H](NC(=O)CN3CCN(CCNC(=O)C[C@H](NC(=O)CC[C@H](NC(=O)c4ccc(NCc5cnc6nc(N)[nH]c(=O)c6n5)cc4)C(=O)O)C(=O)O)CC3)C(=O)O)C(=O)O)C(=O)O)C2)C1` (stereo partly shown) [EC0429], the “percent of total dose in the bile (total DAVLBH biliary excretion)” value in series [6] came out at 8.6%. For the same compound, in series [3] (setting [7]), the “gross toxicity (percentage body weight change)” value is “no gross toxicity was observed”.
